Assays:
[1] = molecular target: T1, recombinant human thymidine kinase 1 (hTK1) protein (human, UniProt P04183 1-234, limits assumed); assay: indirect ELISA on coated hTK1, anti-full-length IgY biotin detection
T1 construct: ELISA coating antigen at 0.5 ug/ml, 100 ul per well (50 ng/well); also called recombinant hTK1 antigen
T1 sequence (looked up): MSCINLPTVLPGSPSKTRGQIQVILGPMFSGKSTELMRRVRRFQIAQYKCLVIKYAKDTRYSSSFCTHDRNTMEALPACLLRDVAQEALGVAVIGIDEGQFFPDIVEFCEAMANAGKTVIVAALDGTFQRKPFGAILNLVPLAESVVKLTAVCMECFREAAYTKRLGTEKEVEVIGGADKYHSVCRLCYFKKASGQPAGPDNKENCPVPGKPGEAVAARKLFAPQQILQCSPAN
Experimental: (§1) The recombinant IgY scFv antibody contains not only the hypervariable region that binds to hTK1, but also the highly conserved framework region (FR). In this embodiment, the HA 9-peptide tag of human influenza hemagglutinin was added. Therefore, when detecting recombinant single-chain antibodies by indirect ELISA, biotin-labeled anti-full-length IgY secondary antibody and horseradish peroxidase-labeled anti-human influenza hemagglutinin HA 9-peptide monoclonal antibodies were used as labeled antibodies, to detect recombinant anti-hTK1 single-chain antibody expressed in CHO cells. The supernatant of the transfected cells was collected and the expression level of recombinant scFv antibody was detected by ELISA experiment. The specific method is as follows:
(§2) The OD value of the CHO cell supernatant transfected with the scFv antibody gene is 6.6 times that of the CHO cell supernatant not transfected, and the ratio of the recombinant hTK1 antigen to the negative antigen control is 6.9.

[2] = molecular target: T1, recombinant human thymidine kinase 1 …; assay: indirect ELISA on coated hTK1, HRP-labeled anti-HA monoclonal antibody detection
Experimental: as §1, §2

[3] = molecular target: T1, recombinant human thymidine kinase 1 …; assay: indirect ELISA, hTK1-coated wells against coating-solution wells, anti-full-length IgY biotin detection
Experimental: as §1, §2

[4] = molecular target: T1, recombinant human thymidine kinase 1 …; assay: indirect ELISA, hTK1-coated wells against coating-solution wells, HRP-labeled anti-HA monoclonal antibody detection
Experimental: as §1, §2

OD ratio to the CHO cell supernatant not transfected [1]: 6.6 fold | OD ratio to the untransfected CHO cell supernatant [2]: 2.6 fold | ratio of the recombinant hTK1 antigen to the negative antigen control [3]: 6.9 ratio | ratio of the recombinant hTK1 antigen to the negative antigen control [4]: 0.287 ratio
B1: recombinant anti-hTK1 chicken IgY single-chain variable fragment (scFv) antibody expressed in CHO cells (scFv)
scFv: MAAVTLDESGGGLQTPGGALSLVCKGSGFTFSSDAMGWMRQAPGKGLEFVARINSAGSYTDYGSAVDGRATISRDNGQSTVRLQLNNLRAEDTSTYFCAKSPGGFSCAYGLCWDAAGSIDAWGHGTEVIVSSGGGSGGGGSGGGGSGGGSALTQPSSVSANLGGTVKITCSGGANYYGWFQQKTPGSAPVSLIYESTKRPSNIPSRFSGSKSGSTGTLTITGVRADDEAVYYCGTYDSSTHTSIFGAGTTLYPYDVPDYA
notes: Tested as unpurified supernatant of transiently transfected CHO cells; also called recombinant IgY scFv antibody; recombinant anti-hTK1 single-chain antibody
